# Patent US8765721B2, “Composition comprising phosphatidyl serine and an antigen or allergen and the use thereof” (Vaccine Technology Limited, priority 2004, dated 2014)
# B1: ovalbumin (protein, UniProt P01012 2-386, looked up)
# Ovalbumin: GSIGAASMEFCFDVFKELKVHHANENIFYCPIAIMSALAMVYLGAKDSTRTQINKVVRFDKLPGFGDSIEAQCGTSVNVHSSLRDILNQITKPNDVYSFSLASRLYAEERYPILPEYLQCVKELYRGGLEPINFQTAADQARELINSWVESQTNGIIRNVLQPSSVDSQTAMVLVNAIVFKGLWEKAFKDEDTQAMPFRVTEQESKPVQMMYQIGLFRVASMASEKMKILELPFASGTMSMLVLLPDEVSGLEQLESIINFEKLTEWTSSNVMEERKIKVYLPRMKMEEKYNLTSVLMAMGITDVFSSSANLSGISSAESLKISQAVHAAHAEINEAGREVVGSAEAGVDAASVSEEFRADHPFLFCIKHIATNAVLFFGRCVSP
# notes: Group 2: ovalbumin antigen, 20 μg on days 21 and 42 without phosphatidyl serine, after Ova + Alh on day 0
# What was measured:
# Type in all cases: in vivo, rat
# Conditions in all cases: no phosphatidyl serine, pooled group serum
# [1] = system: IgE; experiment: Ovalbumin-specific IgE ELISA of serum of immunised rats
# Protocol: (§1) Rats were injected with vaccine compositions comprising the ovalbumin antigen with and without di-oleoyl phosphatidyl serine, lyso-oleoyl phosphatidyl serine or stearoyl(X1)-arachidonoyl(X2) phosphatidyl serine and the concentrations of IgE, IgA and IgG are compared.
# (§2) The animals were acclimatised for a period of 5 days prior to dosing. During the acclimatisation period animals were observed twice daily during the working week and once on each day during the weekend to evaluate the health status of the animals. Rats were then allocated to the following dose groups using computer-generated random order numbers.
# (§3) On day 0, 20 μg of ovalbumin (OA) in phosphate buffered saline (PBS) with alhydrogel (AHG) adjuvant in a final volume of 0.5 mL was administered.
# (§4) On days 21 and 42, 20 μg of ovalbumin (OA) in phosphate buffered saline (PBS) with the relevant test compound in a final volume of 0.5 ml was administered.
# (§5) In each case, 0.5 mL of inoculum was injected subcutaneously into the scruff of the neck.
# (§6) […] A blood sample was also taken from each animal on Days 15, 22, 29, 36, 43, 50, 57 and 64.
# (§7) Serum was prepared by centrifugation of the blood sample at 2,500 rpm for 10 minutes and frozen at −20° C. The samples were then analysed by ELISA to establish the concentration of IgE, IgA and IgG1, IgG2a and IgG2b.
# (§8) The purpose of an ELISA is to determine whether a particular protein is present in a sample and then enables quantification of how much is present. By coating the bottom of wells with ovalbumin (OVA) it is possible to bind anti-OVA specific antibodies. To detect only anti-OVA IgA antibodies anti-rat IgA conjugated to HRP was used as a secondary antibody. Quantification of specific antibodies in the rat sera samples was performed using antibody titrations. The data was reported as endpoint titers. Endpoint titers are defined as the last serum dilution giving an optical density value equal to twice the background optical density for the ELISA plate (buffer).
# [2] = system: IgA; experiment: Ovalbumin-specific IgA ELISA of serum of immunised rats
# Protocol: as §1, §2, §3, §4, §5
# On Day 0 a pre-inoculation blood sample was taken. A blood sample was also taken from each animal on Days 15, 22, 29, 36, 43, 50, 57 and 64.
# as §7, §8
# [3] = system: IgG1; experiment: Ovalbumin-specific IgG1 ELISA of serum of immunised rats
# Protocol: as §1, §2, §3, §4
# (§9) In each case, 0.5 mL of inoculum was injected subcutaneously into the scruff of the neck. […]
# as §7
# The purpose of an ELISA is to determine whether a particular protein is present in a sample and then enables quantification of how much is present. By coating the bottom of wells with ovalbumin (OVA) it is possible to bind anti-OVA specific antibodies. […] Quantification of specific antibodies in the rat sera samples was performed using antibody titrations. The data was reported as endpoint titers. Endpoint titers are defined as the last serum dilution giving an optical density value equal to twice the background optical density for the ELISA plate (buffer).
# [4] = system: IgG2a; experiment: Ovalbumin-specific IgG2a ELISA of serum of immunised rats
# Protocol: as §1, §2, §3, §4, §9, §7, §8
# [5] = system: IgG2b; experiment: Ovalbumin-specific IgG2b ELISA of serum of immunised rats
# Protocol: as §1, §2, §3, §4, §5, §6, §7, §8
molecule,measurement,setting,value
B1,IgE endpoint titer,[1]; Day 1,0
same,IgE endpoint titer,[1]; Day 15,0
same,IgE endpoint titer,[1]; Day 22,0
same,IgE endpoint titer,[1]; Day 29,0
same,IgE endpoint titer,[1]; Day 36,20
same,IgE endpoint titer,[1]; Day 43,20
same,IgE endpoint titer,[1]; Day 50,640
same,IgE endpoint titer,[1]; Day 57,80
same,IgE endpoint titer,[1]; Day 64,40
same,IgA endpoint titer,[2]; Day 1,0
same,IgA endpoint titer,[2]; Day 15,0
same,IgA endpoint titer,[2]; Day 22,0
same,IgA endpoint titer,[2]; Day 29,80
same,IgA endpoint titer,[2]; Day 36,320
same,IgA endpoint titer,[2]; Day 43,320
same,IgA endpoint titer,[2]; Day 50,640
same,IgA endpoint titer,[2]; Day 57,1280
same,IgA endpoint titer,[2]; Day 64,640
same,IgG1 endpoint titer,[3]; Day 1,0
same,IgG1 endpoint titer,[3]; Day 15,320
same,IgG1 endpoint titer,[3]; Day 22,2560
same,IgG1 endpoint titer,[3]; Day 29,10240
same,IgG1 endpoint titer,[3]; Day 36,20480
same,IgG1 endpoint titer,[3]; Day 43,10240
same,IgG1 endpoint titer,[3]; Day 50,10240
same,IgG1 endpoint titer,[3]; Day 57,10240
same,IgG1 endpoint titer,[3]; Day 64,20480
same,IgG2a endpoint titer,[4]; Day 1,0
same,IgG2a endpoint titer,[4]; Day 15,640
same,IgG2a endpoint titer,[4]; Day 22,1280
same,IgG2a endpoint titer,[4]; Day 29,1280
same,IgG2a endpoint titer,[4]; Day 36,2560
same,IgG2a endpoint titer,[4]; Day 43,5120
same,IgG2a endpoint titer,[4]; Day 50,20480
same,IgG2a endpoint titer,[4]; Day 57,20480
same,IgG2a endpoint titer,[4]; Day 64,10240
same,IgG2b endpoint titer,[5]; Day 1,0
same,IgG2b endpoint titer,[5]; Day 15,1280
same,IgG2b endpoint titer,[5]; Day 22,640
same,IgG2b endpoint titer,[5]; Day 29,640
same,IgG2b endpoint titer,[5]; Day 36,640
same,IgG2b endpoint titer,[5]; Day 43,640
same,IgG2b endpoint titer,[5]; Day 50,640
same,IgG2b endpoint titer,[5]; Day 57,5120
same,IgG2b endpoint titer,[5]; Day 64,5120
